Assay results reported in article doi:10.1101/2024.11.17.623997.
Where two headings read alike, the source gives them in different places.

Key:
[1] = target: AcrVIB1 (R. anatipestifer); experiment: SEC-MALS
[2] = target: AcrVIB1 (R. anatipestifer); experiment: other fluorescence titration
[3] = target: AcrVIB1-His (R. anatipestifer); experiment: MST
PbuCas13b [4] = target: T1, PbuCas13b (UniProt E6K398 1-1127); experiment: MST
T1 sequence: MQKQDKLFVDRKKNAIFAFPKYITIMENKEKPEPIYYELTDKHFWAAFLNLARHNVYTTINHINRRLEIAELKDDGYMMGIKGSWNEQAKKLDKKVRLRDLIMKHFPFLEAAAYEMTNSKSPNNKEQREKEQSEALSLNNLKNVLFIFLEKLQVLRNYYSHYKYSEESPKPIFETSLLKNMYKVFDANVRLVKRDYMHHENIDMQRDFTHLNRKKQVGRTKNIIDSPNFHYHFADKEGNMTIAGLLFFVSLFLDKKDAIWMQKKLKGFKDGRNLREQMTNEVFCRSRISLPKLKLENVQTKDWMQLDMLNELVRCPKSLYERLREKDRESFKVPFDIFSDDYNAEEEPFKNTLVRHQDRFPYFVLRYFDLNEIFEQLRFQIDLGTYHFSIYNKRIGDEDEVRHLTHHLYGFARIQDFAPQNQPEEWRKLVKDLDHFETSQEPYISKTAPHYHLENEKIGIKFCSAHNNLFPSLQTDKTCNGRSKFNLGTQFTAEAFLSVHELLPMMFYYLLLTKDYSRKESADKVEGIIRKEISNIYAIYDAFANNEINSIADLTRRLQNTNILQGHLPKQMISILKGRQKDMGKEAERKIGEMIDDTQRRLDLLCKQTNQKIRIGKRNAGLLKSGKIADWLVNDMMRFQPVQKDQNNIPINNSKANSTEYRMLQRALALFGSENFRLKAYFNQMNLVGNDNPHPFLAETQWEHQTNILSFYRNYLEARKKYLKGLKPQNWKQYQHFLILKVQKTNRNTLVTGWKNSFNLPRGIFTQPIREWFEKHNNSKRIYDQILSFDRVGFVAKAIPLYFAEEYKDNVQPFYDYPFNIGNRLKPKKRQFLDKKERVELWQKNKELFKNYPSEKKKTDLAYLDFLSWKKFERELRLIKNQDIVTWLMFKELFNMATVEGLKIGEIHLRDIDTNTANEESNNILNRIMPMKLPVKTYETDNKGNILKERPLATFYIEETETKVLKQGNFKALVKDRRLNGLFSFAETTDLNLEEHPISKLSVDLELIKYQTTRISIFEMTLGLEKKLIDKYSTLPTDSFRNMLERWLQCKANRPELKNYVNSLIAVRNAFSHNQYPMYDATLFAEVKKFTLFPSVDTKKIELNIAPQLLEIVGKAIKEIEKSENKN

PbuCas13b [5] = target: T1, PbuCas13b; experiment: MST; remark: listed apart in the source

For “PbuCas13b Helical-2 domain (residues 579 - 747) (domain or fragment)”, the stoichiometry N [1] was 1 and the Kd [2] was 251 nM.

For PbuCas13b (enzyme), the Kd [3] was 44 nM.

B1: crRNA-1 processed (KW-RNA-002) (structured_RNA)
RNA: CGUCGCCGUCCAGCUCGACCAGGAUGGGAAGUUGCAUCUGCCUUCUUUUUGAAAGGUAAAAACAAC
B1 showed a Kd (PbuCas13b [4]) of about 1000 nM.

B2: crRNA-1 processed / target RNA 1 (KW-RNA-005) (mixed)
RNA 1: B1 RNA
RNA 2: ACUGGCGUUGUUCCCAUCCUGGUCGAGCUGGACGGCGACGUAAACGGCCA
Work on B2 yielded a Kd (PbuCas13b [5]) of 85 nM.
